Measured values as given in PMC3184076 (2011).

Target: MPR.03 biotinylated peptide (HIV-1, biotin on the C-terminus)
Assay: SPR

B1: CAP206-CH12 recombinant human monoclonal antibody (antibody, V domains shown)
VH: QVQLVQSGAEVKKPGSSVKLSCKASGGTFGSYSVTWVRQAPGQTFEWVGRIVPWVGVPNYAPKFQGRVTITADKSSTVYMELTSLRFEDTAVYYCATAYEASGLSYYYYMDDWGKGTTVTVSS
VL: EIVLTQSPGTLSLSPGERATLSCRASQSVTSSYLAWFRHKPGQAPRLLIYGASYRGTGIPDRISGSGSGTDFTLTISRLEPEDFAVYYCQHYGGSPGMYTFGQGTRLEIK
B1 gave a koff of 0.00012 s⁻¹.
